Measured values: article PMC2646082
Where two headings read alike, the source gives them in different places.

Assays:
Assay in all cases: ITC
[1] = biological target: T1, HIV-1 nucleocapsid protein (NC) (HIV-1 NL4-3, UniProt P12493 378-432)
[2] = biological target: T1, HIV-1 nucleocapsid protein (NC); remark: listed apart in the source
[3] = biological target: T1, HIV-1 nucleocapsid protein (NC); remark: listed apart in the source
[4] = biological target: T1, HIV-1 nucleocapsid protein (NC); remark: listed apart in the source
[5] = biological target: T1, HIV-1 nucleocapsid protein (NC); remark: listed apart in the source
[6] = biological target: T1, HIV-1 nucleocapsid protein (NC); remark: listed apart in the source
[7] = biological target: T1, HIV-1 nucleocapsid protein (NC); remark: listed apart in the source
[8] = biological target: T1, HIV-1 nucleocapsid protein (NC); remark: listed apart in the source

UUUGCCCUUCU (ssRNA) [U5UGU (G106U;G112U)]
Kd [1]: 812 ± 91 nM

UUUUCCCUUCU (ssRNA) [U5UUU (G106U;G108U;G112U)]
binding result [2]: no binding

UGUUCCCGUCU (ssRNA) [U5GUG (G108U)]
Kd [3]: 239 ± 20 nM

UGUUCCCUUCU (ssRNA) [U5GUU (G108U;G112U)]
Kd [4]: 880 ± 91 nM

UGUGCCCUUCU (ssRNA) [U5GGU (G112U)]
Kd [5]: 81 ± 8 nM

UUUUCCCGUCU (ssRNA) [U5UUG (G106U;G108U)]
Kd [6]: 547 ± 55 nM

UUUGCCCGUCU (ssRNA) [U5UGG (G106U)]
Kd [7]: 267 ± 20 nM

UGUGCCCGUCU (ssRNA) [U5 (U5GGG, native)]
Kd [8]: 122 ± 10 nM
